Results published in US20070207967A1, “Peptide Inhibitors of Matrix Metalloproteinase Activity” (CTT CANCER TARGETING TECHNOLOGIES OY, priority 2004, published 2007).

How the values were obtained:
αM integrin I domain [1] = molecular target: T1, αM integrin I domain (Homo sapiens, UniProt P11215); experiment: Pro-MMP-9 binding to αM integrin I domain
Description: Pro-MMP-9 and gelatin binding to leukocyte αM integrin. Pro-MMP-9 binding to the αM I domain in the presence of peptides was studied as described (12). Gelatin binding to the pro-MMP-^9/αMβ2 integrin complex was studied by immobilizing the integrin αMβ2 (12) or αIIbβ3 as a control (Enzyme Research Laboratories, South Bend, Ind.) (1 μg/well) in TBS/1 mM CaCl2/1 mM MgCl2 followed by saturation of the wells with 1% BSA in PB ST. Pro-MMP-9 (100 ng/well) was incubated for 2 h and the unbound pro-MMP-9 was washed away. Biotinylated gelatin (2.5 μg/ml) was allowed to bind for 30 min at room temperature. Bound gelatin was detected with streptavidin-peroxidase.

pro-MMP-9 = pro-MMP-9 (Homo sapiens, UniProt P14780); experiment: Pro-MMP-9 activation in THP-1 cells, zymography; assay type: cell-based; conditions: THP-1, pro-MMP-3 and plasminogen, peptides 200 μM
Description: Activation of MMP-9. THP-1 cells (40 000/100 μl) or confluent HT1080 cells were incubated for 16 h in the presence or absence of 2.5 μg/ml plasminogen, 0.5 μg/ml pro-MMP-3 (Oncogene Research Products), 40 nM PDBu, and the peptides at a 200 μM concentration unless otherwise indicated. Aliquots of the conditioned media were analyzed by gelatin zymography (9). […] The samples were analyzed by gelatin zymography.

αM integrin I domain [2] = molecular target: T1, αM integrin I domain; conditions: ref (12); cited from earlier work
neutrophil recruitment = conditions: acute inflammation model in mice; ref (48); cited from earlier work
leukocytes = conditions: ref (12); cited from earlier work
[3] = system: β5 integrin-transfected CS-1 melanoma cells; experiment: 125I-C domain binding to cells; assay type: cell-based, hamster; conditions: unlabelled proteins 50 μg/ml, peptides 50 μM
Description: ^125I-C domain binding to cells. The MMP-9 C domain was labelled with ^125I to a specific activity 0.06 μCi/pmol. The labelled domain retained 40% of the CRV peptide-binding activity as shown by the phage-binding assay. […] After a preincubation of 1.5×10^6 cells in a 200 μl volume on ice for 30 min with the competitors, ^125I-labelled C domain (1×10^6 cpm) was added and incubated for three hours on ice. The cells were transferred to tubes containing 200 μl of dibutyl phthalate/cyclohexane mixture (23:2 vol/vol), centrifuged 7500×g for 10 minutes and snap-frozen (24). The bottom of the tube containing the cells were cut and analyzed with a gamma-counter.

T1 sequence (P11215 150-328 limits assumed): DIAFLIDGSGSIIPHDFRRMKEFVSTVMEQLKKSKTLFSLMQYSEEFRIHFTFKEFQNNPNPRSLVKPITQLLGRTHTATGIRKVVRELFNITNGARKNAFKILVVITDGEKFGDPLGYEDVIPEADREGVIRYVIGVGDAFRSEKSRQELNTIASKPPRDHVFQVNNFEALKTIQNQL
Sequence of pro-MMP-9 (P14780 20-707 limits assumed): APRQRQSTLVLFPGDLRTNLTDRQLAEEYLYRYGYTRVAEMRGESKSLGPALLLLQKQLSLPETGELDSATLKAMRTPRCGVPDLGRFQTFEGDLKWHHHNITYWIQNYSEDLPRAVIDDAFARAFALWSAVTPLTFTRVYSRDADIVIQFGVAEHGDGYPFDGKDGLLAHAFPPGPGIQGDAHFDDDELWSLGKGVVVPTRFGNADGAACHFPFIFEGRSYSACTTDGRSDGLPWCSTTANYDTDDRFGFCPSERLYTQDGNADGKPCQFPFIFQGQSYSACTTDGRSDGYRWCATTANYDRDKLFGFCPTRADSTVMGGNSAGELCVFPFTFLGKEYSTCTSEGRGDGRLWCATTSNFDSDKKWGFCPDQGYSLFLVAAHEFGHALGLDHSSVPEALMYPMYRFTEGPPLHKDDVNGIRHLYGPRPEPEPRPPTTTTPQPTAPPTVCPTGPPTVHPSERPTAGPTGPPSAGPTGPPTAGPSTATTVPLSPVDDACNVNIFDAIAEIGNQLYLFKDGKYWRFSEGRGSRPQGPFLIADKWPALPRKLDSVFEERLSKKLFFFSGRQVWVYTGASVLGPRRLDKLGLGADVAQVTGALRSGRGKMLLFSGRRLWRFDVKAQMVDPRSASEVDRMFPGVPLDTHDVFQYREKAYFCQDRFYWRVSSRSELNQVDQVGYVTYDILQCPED

| Substance | Effect on interaction of MMP-9 with the leukocyte αM integrin I domain (αM integrin I domain [1]) | Effect on pro-MMP-9 activation (pro-MMP-9) | Competition with pro-MMP-9 binding to I domain of αM integrin subunit (αM integrin I domain [2]) | Inhibition of neutrophil recruitment (neutrophil recruitment) | Inhibition of migration of leukocytes (leukocytes) | Competition of 125I-labelled MMP-9 C domain binding to β5 integrin-transfected CS-1 cells [3] |
| --- | --- | --- | --- | --- | --- | --- |
| ADGACILWMDDGWCGAAG | blocked | augmented | competed | active in vivo inhibiting neutrophil recruitment | inhibited migration of leukocytes |  |
| GRGDSP [reference compound] |  |  |  |  |  | No competition |
